± gives the standard deviation of the averaged measurements.
Test system: ATP
Experiment: switch fluorescence ratio, 500 uM ATP over buffer (Cy3 cluster intensity, sum of 5 cycles each) (fold (ratio)); higher = stronger signal-on switching upon ATP binding; sequences stand for … in TCGTCGGCAGCGTCAGATGTGTATAAGAGACAGTTTTTTTTTTTTTTTTTTTTTTTTT…TC
Details: aptamer strand: ATP DNA aptamer (quencher-CACCTGGGGGAGTATTGCGGAGGAAGG + anchor), 100 nM annealed; ATP concentration: 500 uM
Method in brief: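 Five buffer/ATP imaging cycles were run on Cy3-labelled switching-strand clusters on a modified Illumina MiSeq flow-cell, with NaOH stripping and re-annealing between cycles. In each cycle, clusters annealed to 100 nM quencher-labelled ATP aptamer were imaged in selection buffer, then after 15 min with 500 uM ATP at 22 °C. Per cluster, the fluorescence ratio is summed target-cycle over summed buffer-cycle Cy3 intensity, averaged per switch-domain sequence. Only clusters within 100-1000 RFU were kept.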
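Further: ATP exposure 15 min at 22 °C before imaging.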

| Sequence | switch fluorescence ratio |
| --- | --- |
| AAATTGGGGG | 1.02 ± 0.075 |
| AAATTGGGTG | 1.02 ± 0.048 |
| AAATTGGTTG | 0.976 ± 0.014 |
| AAATTGGTTT | 0.995 ± 0.032 |
| AAATTGTAAA | 0.969 ± 0.051 |
| AAATTGTAAT | 1.02 ± 0.041 |
| AAATTGTATT | 1 ± 0.024 |
| AAATTGTTTT | 1.01 ± 0.019 |
| AAATTTAATG | 0.961 ± 0.016 |
| AAATTTACAT | 1.002 ± 0.0034 |
| AAATTTAGCT | 1.0313 ± 0.0006 |
| AAATTTATAA | 0.984 ± 0.044 |
| AAATTTATGT | 0.972 ± 0.027 |
| AAATTTCTTA | 1 ± 0.026 |
| AAATTTTGTT | 0.987 ± 0.021 |
| AACAAATGAT | 1.007 ± 0.0024 |
| AACAACCATT | 1.05 ± 0.051 |
| AACAAGTTAG | 1.01 ± 0.015 |
| AACAATATTG | 1.02 ± 0.028 |
| AACAATGCTA | 1.05 ± 0.026 |
| AACAATTCTG | 1.01 ± 0.012 |
| AACACAAGGT | 1.02 ± 0.017 |
| AACACGTATA | 1.227 ± 0.0097 |
| AACAGAAAGG | 0.982 ± 0.045 |
| AACAGAAATA | 1.01 ± 0.021 |

| Sequence | switch fluorescence ratio |
| --- | --- |
| AACAGAGTTA | 1.02 ± 0.013 |
| AACAGGACTG | 1 ± 0.036 |
| AACAGGCGAT | 0.985 ± 0.034 |
| AACAGGTACT | 1.074 ± 0.0094 |
| AACAGTAGCA | 1.03 ± 0.019 |
| AACATAGGTG | 1.14 ± 0.056 |
| AACATGGGGC | 1.02 ± 0.041 |
| AACATTGTGG | 1.017 ± 0.0063 |
| AACATTTAGC | 1.01 ± 0.039 |
| AACATTTCTT | 0.976 ± 0.045 |
| AACATTTTGC | 0.9941 ± 0.0069 |
| AACATTTTTT | 0.99 ± 0.019 |
| AACCACGTTA | 1.09 ± 0.053 |
| AACCACTGGG | 1.17 ± 0.13 |
| AACCAGCACC | 1.0991 ± 0.00048 |
| AACCATACGT | 1.29 ± 0.032 |
| AACCCGCACC | 2.75 ± 0.12 |
| AACCCGCCTT | 1.07 ± 0.067 |
| AACCGAAGAC | 2.15 ± 0.075 |
| AACCGGGGGG | 0.994 ± 0.045 |
| AACCGGTATT | 0.9752 ± 0.0059 |
| AACCTATGCT | 1.012 ± 0.0018 |
| AACCTCATGC | 1.17 ± 0.086 |
| AACCTCGTCT | 1.07 ± 0.039 |
| AACCTCTATT | 1.03 ± 0.015 |

| Sequence | switch fluorescence ratio |
| --- | --- |
| AACCTGCGGA | 1.02 ± 0.011 |
| AACCTGGTCG | 1.069 ± 0.0046 |
| AACCTTTCTG | 1.5 ± 0.021 |
| AACGAAAAGT | 0.996 ± 0.012 |
| AACGAATTAC | 1.79 ± 0.16 |
| AACGAGGCAG | 1.21 ± 0.038 |
| AACGATGTAA | 0.9951 ± 0.0059 |
| AACGATTGGC | 1.08 ± 0.018 |
| AACGCACGTT | 1.28 ± 0.02 |
| AACGCGTGGT | 1.01 ± 0.02 |
| AACGCTATGT | 1.05 ± 0.023 |
| AACGCTGAGG | 1.01 ± 0.009 |
| AACGCTTATT | 1.09 ± 0.064 |
| AACGGACAGG | 1.27 ± 0.049 |
| AACGGGAAGA | 1.02 ± 0.028 |
| AACGGGAGAC | 2.52 ± 0.24 |
| AACGGGCCCG | 1 ± 0.04 |
| AACGGGCGGG | 1.15 ± 0.014 |
| AACGGGCTGG | 0.996 ± 0.04 |
| AACGGGGGCT | 0.9778 ± 0.006 |
| AACGGGGGGG | 1.05 ± 0.037 |
| AACGGGGGTC | 1 ± 0.043 |
| AACGGGGGTG | 1.01 ± 0.045 |
| AACGGGGTGG | 0.976 ± 0.044 |
| AACGGGTCTG | 1.01 ± 0.039 |

| Sequence | switch fluorescence ratio |
| --- | --- |
| AACGGGTTAC | 1.14 ± 0.019 |
| AACGGTAATT | 1.1 ± 0.034 |
| AACGGTACGG | 1.03 ± 0.045 |
| AACGGTATTC | 1.07 ± 0.043 |
| AACGGTTTCC | 1.02 ± 0.038 |
| AACGTACAGG | 1.65 ± 0.15 |
| AACGTACTGG | 1.52 ± 0.095 |
| AACGTAGGAC | 1.1 ± 0.014 |
| AACGTTCGCG | 1.03 ± 0.032 |
| AACGTTGGGG | 0.967 ± 0.017 |
| AACGTTTGCG | 0.986 ± 0.017 |
| AACGTTTGTT | 1.14 ± 0.23 |
| AACTAGGAGG | 0.983 ± 0.012 |
| AACTAGGATA | 1.01 ± 0.02 |
| AACTATTATG | 1.003 ± 0.01 |
| AACTATTGAA | 1.003 ± 0.0077 |
| AACTATTGCG | 0.988 ± 0.019 |
| AACTATTGTA | 1.01 ± 0.022 |
| AACTATTTGT | 0.978 ± 0.015 |
| AACTGAGTAG | 1.01 ± 0.015 |
| AACTGTTCTG | 1.01 ± 0.014 |
| AACTGTTGGT | 0.978 ± 0.025 |
| AACTTAAATT | 1.01 ± 0.021 |
| AACTTATGTC | 0.9738 ± 0.0069 |
| AACTTCAGGC | 1.05 ± 0.041 |

| Sequence | switch fluorescence ratio |
| --- | --- |
| AACTTCCGCA | 1.29 ± 0.038 |
| AACTTGAGAA | 1.01 ± 0.012 |
| AACTTGATAT | 0.9835 ± 0.0019 |
| AACTTGGACC | 1.05 ± 0.035 |
| AACTTTAGTA | 1 ± 0.016 |
| AACTTTTATT | 1.01 ± 0.015 |
| AACTTTTCTA | 0.976 ± 0.017 |
| AACTTTTTTT | 0.98236 ± 0.00064 |
| AAGAAAAATT | 0.9725 ± 0.0048 |
| AAGAAACGGG | 1.025 ± 0.008 |
| AAGAAAGACT | 1.02 ± 0.013 |
| AAGAAATTAA | 1.01 ± 0.045 |
| AAGAAATTTT | 0.984 ± 0.012 |
| AAGAAGAGGA | 1 ± 0.011 |
| AAGAAGATTT | 1 ± 0.012 |
| AAGAATGACT | 0.977 ± 0.014 |
| AAGAATTGTG | 0.992 ± 0.032 |
| AAGAATTTTG | 0.999 ± 0.027 |
| AAGACACAGA | 1.06 ± 0.035 |
| AAGACCGGCA | 1.01 ± 0.038 |
| AAGAGAACGG | 1.04 ± 0.091 |
| AAGAGAAGCC | 1.02 ± 0.078 |
| AAGAGAGGGA | 0.981 ± 0.041 |
| AAGAGAGGGG | 1.02 ± 0.029 |
| AAGAGATATG | 1.02 ± 0.059 |

| Sequence | switch fluorescence ratio |
| --- | --- |
| AAGAGATTTT | 0.986 ± 0.012 |
| AAGAGGATG | 0.977 ± 0.023 |
| AAGAGGCATG | 0.971 ± 0.07 |
| AAGAGGCCGG | 0.986 ± 0.031 |
| AAGAGGGGTA | 0.999 ± 0.018 |
| AAGAGGGTGG | 0.997 ± 0.02 |
| AAGAGGGTTT | 1.01 ± 0.05 |
| AAGAGGTCAG | 1.033 ± 0.0016 |
| AAGAGTAGGA | 0.989 ± 0.0099 |
| AAGAGTATAA | 0.985 ± 0.04 |
| AAGAGTCTTT | 1.01 ± 0.017 |
| AAGAGTGGGA | 1.03 ± 0.011 |
| AAGAGTGGTG | 0.988 ± 0.015 |
| AAGATCACTG | 1.06 ± 0.068 |
| AAGATCGGGG | 0.972 ± 0.049 |
| AAGATGAGGT | 1.01 ± 0.021 |
| AAGATGCTTC | 1 ± 0.011 |
| AAGATGGGGT | 0.991 ± 0.017 |
| AAGATGTAGT | 0.994 ± 0.017 |
| AAGATGTATT | 0.9561 ± 0.0015 |
| AAGATTAGGT | 1 ± 0.059 |
| AAGATTTCGT | 1 ± 0.044 |
| AAGCACCGGG | 1.08 ± 0.085 |
| AAGCACTAGG | 1.1916 ± 0.0011 |
| AAGCAGGGGG | 0.995 ± 0.018 |

| Sequence | switch fluorescence ratio |
| --- | --- |
| AAGCAGGTGG | 1.052 ± 0.0096 |
| AAGCATCTAC | 2.08 ± 0.32 |
| AAGCATTTGT | 0.9976 ± 0.0089 |
| AAGCCAAATG | 0.994 ± 0.029 |
| AAGCCAAGAG | 1.05 ± 0.027 |
| AAGCCAGCTC | 1.02 ± 0.037 |
| AAGCCGAGGG | 1.017 ± 0.0022 |
| AAGCCGATCT | 0.974 ± 0.046 |
| AAGCCGGGAT | 1.02 ± 0.016 |
| AAGCCTGAGG | 1.015 ± 0.0084 |
| AAGCCTTTTT | 1.01 ± 0.019 |
| AAGCGAGCCG | 1.02 ± 0.091 |
| AAGCGAGGTT | 0.991 ± 0.021 |
| AAGCGCATTT | 1.05 ± 0.029 |
| AAGCGGGTCG | 1.03 ± 0.049 |
| AAGCGGTTCG | 0.98939 ± 0.0009 |
| AAGCGGTTTT | 1 ± 0.019 |
| AAGCGTGAGG | 1.04 ± 0.047 |
| AAGCGTGTGG | 1 ± 0.036 |
| AAGCTAATGT | 1.061 ± 0.0089 |
| AAGCTACTGG | 1.0513 ± 0.00024 |
| AAGCTCTTGA | 1 ± 0.04 |
| AAGCTGGTGT | 1.014 ± 0.0075 |
| AAGCTGTGCA | 0.99 ± 0.038 |
| AAGCTGTTAT | 1.16 ± 0.29 |

| Sequence | switch fluorescence ratio |
| --- | --- |
| AAGCTTCTGT | 1.023 ± 0.0057 |
| AAGCTTTCGG | 1.03 ± 0.016 |
| AAGGAAAGAT | 0.975 ± 0.04 |
| AAGGAAATGG | 1.01 ± 0.035 |
| AAGGACAAGA | 1.02 ± 0.00092 |
| AAGGACATTA | 1.042 ± 0.0014 |
| AAGGACCGGC | 0.991 ± 0.057 |
| AAGGAGAGCT | 1.01 ± 0.054 |
| AAGGAGAGGG | 1 ± 0.096 |
| AAGGAGGATG | 0.995 ± 0.042 |
| AAGGAGGCAC | 0.985 ± 0.021 |
| AAGGAGGCAG | 1.03 ± 0.045 |
| AAGGAGGGCA | 0.984 ± 0.016 |
| AAGGATAATG | 0.976 ± 0.019 |
| AAGGATATCT | 0.988 ± 0.022 |
| AAGGATGTGG | 0.977 ± 0.021 |
| AAGGATTGCG | 0.96 ± 0.047 |
| AAGGATTTTT | 0.998 ± 0.03 |
| AAGGCAGGGG | 1.05 ± 0.044 |
| AAGGCAGGTT | 1.021 ± 0.0068 |
| AAGGCCAGCG | 0.953 ± 0.051 |
| AAGGCCAGGT | 1.17 ± 0.083 |
| AAGGCCGCGG | 0.997 ± 0.05 |
| AAGGCCGGAA | 1.04 ± 0.025 |
| AAGGCGAGCT | 0.992 ± 0.01 |
